# Read-outs that look alike come from different tables or passages of the source.
# How the values were obtained:
# Test in all cases: cell-based or functional assay
# [1] = molecular target: IL-15Rβ/γ chain (IL-2Rβ and common gamma chain) on human CD8+ T cells and NK cells (human) (UniProt P14784)
# [2] = molecular target: IL-15Rβ/γ chain (IL-2Rβ and common gamma chain) on human CD8+ T cells and NK cells (human) (UniProt P14784); remark: listed apart in the source
# [3] = molecular target: IL-15Rβ/γ chain (IL-2Rβ and common gamma chain) on human CD8+ T cells and NK cells (human) (UniProt P14784); remark: listed apart in the source
# [4] = molecular target: IL-15Rβ/γ chain (IL-2Rβ and common gamma chain) on human CD8+ T cells and NK cells (human) (UniProt P14784); remark: listed apart in the source
# IL-15Rβ/γ chain (IL-2Rβ and common gamma chain) on human CD8+ T cells and NK cells (human), sequence (P14784 27-551, chain 1 of 2): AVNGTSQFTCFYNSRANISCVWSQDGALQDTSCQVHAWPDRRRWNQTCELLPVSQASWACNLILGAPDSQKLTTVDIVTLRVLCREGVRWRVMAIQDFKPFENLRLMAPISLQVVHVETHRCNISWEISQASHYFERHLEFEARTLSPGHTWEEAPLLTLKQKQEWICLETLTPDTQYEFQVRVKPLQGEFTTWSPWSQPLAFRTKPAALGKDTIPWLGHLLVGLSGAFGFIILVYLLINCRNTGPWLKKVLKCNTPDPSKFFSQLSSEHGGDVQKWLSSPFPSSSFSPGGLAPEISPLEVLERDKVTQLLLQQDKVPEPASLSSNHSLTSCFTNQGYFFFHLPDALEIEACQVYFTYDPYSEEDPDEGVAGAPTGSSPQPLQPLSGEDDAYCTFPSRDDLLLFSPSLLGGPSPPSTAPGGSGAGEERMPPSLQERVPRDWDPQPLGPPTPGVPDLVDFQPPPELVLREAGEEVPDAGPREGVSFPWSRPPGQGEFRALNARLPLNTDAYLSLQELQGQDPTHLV
# IL-15Rβ/γ chain (IL-2Rβ and common gamma chain) on human CD8+ T cells and NK cells (human), sequence (P31785 23-369, chain 2 of 2, further chain): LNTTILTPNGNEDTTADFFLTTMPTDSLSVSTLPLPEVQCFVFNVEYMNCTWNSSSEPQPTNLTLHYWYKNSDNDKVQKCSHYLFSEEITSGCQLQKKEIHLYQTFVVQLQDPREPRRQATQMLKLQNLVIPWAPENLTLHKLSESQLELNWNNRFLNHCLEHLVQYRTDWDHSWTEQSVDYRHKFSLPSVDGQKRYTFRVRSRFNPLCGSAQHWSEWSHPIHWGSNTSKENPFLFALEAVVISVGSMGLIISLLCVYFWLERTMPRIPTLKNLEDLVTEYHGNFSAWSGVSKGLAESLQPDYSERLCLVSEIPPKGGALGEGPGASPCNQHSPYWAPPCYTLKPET
binder,measurement,setting,value
"W369-BMK1 (XENP24306) (Fc fusion, not shown: a dimerising Fc or GST, IL-15Rα-Fc chain, linker, Fc lack entries) NWVNVISDLKKIEDLIQSMHIDATLYTESNVHPSCKVTAMKCFLLELQVISLESGDASIHDTVQDLIILANNSLSSNGNVTESGCKECEELEEKNIKEFLQSFVHIVQMFINTS","EC50, % Ki67 expression, human CD8+ T cells",[1],145 nM
same,"EC50, % Ki67 expression, human NK cells",[1],39 nM
same,"Fold reduced (EC50, % Ki67), human CD8+ T cells",[1],176 fold
same,"Fold reduced (EC50, % Ki67), human NK cells",[1],231 fold
same,"EC50, % Ki67 expression, human CD8+ T cells",[2],651 nM
same,"EC50, % Ki67 expression, human NK cells",[2],74.3 nM
same,"Fold reduced (EC50, % Ki67), human CD8+ T cells",[2],2170 fold
same,"Fold reduced (EC50, % Ki67), human NK cells",[2],2480 fold
same,"EC50, % Ki67 expression, human CD8+ T cells",[3],203 nM
same,"EC50, % Ki67 expression, human NK cells",[3],35.5 nM
same,"Fold reduced (EC50, % Ki67), human CD8+ T cells",[3],441 fold
same,"Fold reduced (EC50, % Ki67), human NK cells",[3],355 fold
same,"EC50, % Ki67 expression, human CD8+ T cells",[4],28.5 nM
same,"EC50, % Ki67 expression, human NK cells",[4],5.12 nM
same,"Fold reduced (EC50, % Ki67), human CD8+ T cells",[4],155 fold
same,"Fold reduced (EC50, % Ki67), human NK cells",[4],244 fold

# — patent publication US20230270823A1
